# T1: human PAC1 receptor (human, UniProt P41586 24-468)
# T1 sequence: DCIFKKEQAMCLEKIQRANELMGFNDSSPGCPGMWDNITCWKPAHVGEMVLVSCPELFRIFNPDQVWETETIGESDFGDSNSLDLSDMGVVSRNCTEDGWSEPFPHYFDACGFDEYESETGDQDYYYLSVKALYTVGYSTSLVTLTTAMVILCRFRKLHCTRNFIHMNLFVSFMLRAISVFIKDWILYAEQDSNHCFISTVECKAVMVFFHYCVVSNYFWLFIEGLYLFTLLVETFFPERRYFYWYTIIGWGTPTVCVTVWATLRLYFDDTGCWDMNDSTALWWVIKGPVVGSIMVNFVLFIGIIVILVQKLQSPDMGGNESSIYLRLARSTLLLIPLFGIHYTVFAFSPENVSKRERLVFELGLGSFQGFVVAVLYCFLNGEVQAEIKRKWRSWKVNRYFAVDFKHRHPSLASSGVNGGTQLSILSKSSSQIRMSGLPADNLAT
# Tests used:
# human CGRP receptor = human CGRP receptor (human, UniProt Q16602 23-461; O60894 27-148); assay: cell-based or functional assay
# Chain of human CGRP receptor (Q16602 23-461 limits assumed, chain 1 of 2): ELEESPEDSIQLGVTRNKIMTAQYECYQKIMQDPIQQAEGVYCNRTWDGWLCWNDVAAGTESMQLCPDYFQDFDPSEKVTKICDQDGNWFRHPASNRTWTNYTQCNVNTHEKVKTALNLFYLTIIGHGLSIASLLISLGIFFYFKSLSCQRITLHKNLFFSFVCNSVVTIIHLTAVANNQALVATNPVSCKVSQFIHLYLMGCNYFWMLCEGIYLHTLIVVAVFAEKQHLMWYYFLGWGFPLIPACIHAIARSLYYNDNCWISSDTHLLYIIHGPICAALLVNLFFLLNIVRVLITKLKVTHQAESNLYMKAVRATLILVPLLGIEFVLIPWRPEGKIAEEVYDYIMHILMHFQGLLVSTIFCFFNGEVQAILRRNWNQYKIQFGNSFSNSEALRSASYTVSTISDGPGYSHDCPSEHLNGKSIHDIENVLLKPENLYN
# Chain of human CGRP receptor (O60894 27-148 limits assumed, chain 2 of 2): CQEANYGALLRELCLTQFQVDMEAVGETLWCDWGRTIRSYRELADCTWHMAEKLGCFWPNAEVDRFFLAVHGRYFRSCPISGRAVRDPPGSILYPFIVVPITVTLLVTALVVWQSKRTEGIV
# human PAC1 receptor = target: T1, human PAC1 receptor; assay: cell-based or functional assay
Fold-improvement over 4E4 Ab (human CGRP receptor) [fold],IC50 (human CGRP receptor) [nM],Fold-improvement over 29G4v22 Ab (human PAC1 receptor) [fold],IC50 (human PAC1 receptor) [nM],Binder
1.3,0.37,10.4,0.61,"iPS:454753 (bispecific antibody, human IgG1, kappa, lambda, N297G) light 1: QSVLTQPPSVSAAPGQKVTISCSGSYSNIGRYSVSWYQQLPGTAPKLLIYDNNKRPSGIPDRFSGSKSGTSATLGITGLQTGDEADYYCGTWDSRLSAVVFGGGTKLTVLGQPKAAPSVTLFPPSSEELQANKATLVCLISDFYPGAVTVAWKADSSPVKAGVETTTPSKQSNNKYAAKSYLSLTPEQWKSHRSYSCQVTHEGSTVEKTVAPTECS heavy 1: QVQLVESGGGVVQPGRSLRLSCAASGFTFSSFGMHWVRQAPGKGLEWVAVISFDGSIKYSVDSVKGRFTISRDNSKNTLFLQMNSLRAEDTAVYYCARDRLNYYESSGYYHYKYYGMAVWGQGTTVTVSSASTKGPSVFPLAPSSKSTSGGTAALGCLVKDYFPEPVTVSWNSGALTSGVHTFPAVLQSSGLYSLESVVTVPSSSLGTQTYICNVNHKPSNTKVDKKVEPKSCDKTHTCPPCPAPELLGGPSVFLFPPKPKDTLMISRTPEVTCVVVDVSHEDPEVKFNWYVDGVEVHNAKTKPCEEQYGSTYRCVSVLTVLHQDWLNGKEYKCKVSNKALPAPIEKTISKAKGQPREPQVYTLPPSRKKMTKNQVSLTCLVKGFYPSDIAVEWESNGQPENNYKTTPPVLKSDGSFFLYSKLTVDKSRWQQGNVFSCSVMHEALHNHYTQKSLSLSPGK light 2: EIVLTQSPATLSLSPGERATLSCRASKSVGRSLHWYQQKPGQAPRLLIKYASQSLSGIPARFSGSGSGTDFTLTISSLEPEDFAVYYCHQSSRLPFTFGPGTKVDIKRTVAAPSVFIFPPSDEQLKSGTASVVCLLNNFYPREAKVQWKVDNALQSGNSQESVTEQDSKDSTYSLESTLTLSKADYEKHKVYACEVTHQGLSSPVTKSFNRGEC heavy 2: not shown"
1.8,0.27,9.2,0.69,"iPS:454755 (bispecific antibody, human IgG1, kappa, lambda, N297G) light 1: QSVLTQPPSVSAAPGQKVTISCSGSYSNIGRYSVSWYQQLPGTAPKLLIYDNNKRPSGIPDRFSGSKSGTSATLGITGLQTGDEADYYCGTWDSRLSAVVFGGGTKLTVLGQPKAAPSVTLFPPSSEELQANKATLVCLISDFYPGAVTVAWKADSSPVKAGVETTTPSKQSNNKYAAKSYLSLTPEQWKSHRSYSCQVTHEGSTVEKTVAPTECS heavy 1: QVQLVESGGGVVQPGRSLRLSCAASGFTFSSFGMHWVRQAPGKGLEWVAVISFDGSIKYSVDSVKGRFTISRDNSKNTLFLQMNSLRAEDTAVYYCARDRLNYYESSGYYHYKYYGMAVWGQGTTVTVSSASTKGPSVFPLAPSSKSTSGGTAALGCLVKDYFPEPVTVSWNSGALTSGVHTFPAVLQSSGLYSLESVVTVPSSSLGTQTYICNVNHKPSNTKVDKKVEPKSCDKTHTCPPCPAPELLGGPSVFLFPPKPKDTLMISRTPEVTCVVVDVSHEDPEVKFNWYVDGVEVHNAKTKPCEEQYGSTYRCVSVLTVLHQDWLNGKEYKCKVSNKALPAPIEKTISKAKGQPREPQVYTLPPSRKKMTKNQVSLTCLVKGFYPSDIAVEWESNGQPENNYKTTPPVLKSDGSFFLYSKLTVDKSRWQQGNVFSCSVMHEALHNHYTQKSLSLSPGK light 2: EIVLTQSPATLSLSPGERATLSCRASKSVGRSLHWYQQKPGQAPRLLIKYASQSLSGIPARFSGSGSGTDFTLTISSLEPEDFAVYYCHQSSRLPFTFGPGTKVDIKRTVAAPSVFIFPPSDEQLKSGTASVVCLLNNFYPREAKVQWKVDNALQSGNSQESVTEQDSKDSTYSLESTLTLSKADYEKHKVYACEVTHQGLSSPVTKSFNRGEC heavy 2: not shown"
1.5,0.32,8.5,0.75,"iPS:454763 (bispecific antibody, human IgG1, kappa, lambda, N297G) light 1: QSVLTQPPSVSAAPGQKVTISCSGSYSNIGRYSVSWYQQLPGTAPKLLIYDNNKRPSGIPDRFSGSKSGTSATLGITGLQTGDEADYYCGTWDSRLSAVVFGGGTKLTVLGQPKAAPSVTLFPPSSEELQANKATLVCLISDFYPGAVTVAWKADSSPVKAGVETTTPSKQSNNKYAAKSYLSLTPEQWKSHRSYSCQVTHEGSTVEKTVAPTECS heavy 1: QVQLVESGGGVVQPGRSLRLSCAASGFTFSSFGMHWVRQAPGKGLEWVAVISFDGSIKYSVDSVKGRFTISRDNSKNTLFLQMNSLRAEDTAVYYCARDRLNYYESSGYYHYKYYGMAVWGQGTTVTVSSASTKGPSVFPLAPSSKSTSGGTAALGCLVKDYFPEPVTVSWNSGALTSGVHTFPAVLQSSGLYSLESVVTVPSSSLGTQTYICNVNHKPSNTKVDKKVEPKSCDKTHTCPPCPAPELLGGPSVFLFPPKPKDTLMISRTPEVTCVVVDVSHEDPEVKFNWYVDGVEVHNAKTKPCEEQYGSTYRCVSVLTVLHQDWLNGKEYKCKVSNKALPAPIEKTISKAKGQPREPQVYTLPPSRKKMTKNQVSLTCLVKGFYPSDIAVEWESNGQPENNYKTTPPVLKSDGSFFLYSKLTVDKSRWQQGNVFSCSVMHEALHNHYTQKSLSLSPGK light 2: EIVLTQSPATLSLSPGERATLSCRASQSVGRSLHWYQQKPGQAPRLLIKYASQSLSGIPARFSGSGSGTDFTLTISSLEPEDFAVYYCHQSSRLPFTFGPGTKVDIKRTVAAPSVFIFPPSDEQLKSGTASVVCLLNNFYPREAKVQWKVDNALQSGNSQESVTEQDSKDSTYSLESTLTLSKADYEKHKVYACEVTHQGLSSPVTKSFNRGEC heavy 2: not shown"
1.4,0.43,9.2,0.68,"iPS:454757 (bispecific antibody, human IgG1, kappa, lambda, N297G) light 1: QSVLTQPPSVSAAPGQKVTISCSGSYSNIGRYSVSWYQQLPGTAPKLLIYDNNKRPSGIPDRFSGSKSGTSATLGITGLQTGDEADYYCGTWDSRLSAVVFGGGTKLTVLGQPKAAPSVTLFPPSSEELQANKATLVCLISDFYPGAVTVAWKADSSPVKAGVETTTPSKQSNNKYAAKSYLSLTPEQWKSHRSYSCQVTHEGSTVEKTVAPTECS heavy 1: QVQLVESGGGVVQPGRSLRLSCAASGFTFSSFGMHWVRQAPGKGLEWVAVISFDGSIKYSVDSVKGRFTISRDNSKNTLFLQMNSLRAEDTAVYYCARDRLNYYESSGYYHYKYYGMAVWGQGTTVTVSSASTKGPSVFPLAPSSKSTSGGTAALGCLVKDYFPEPVTVSWNSGALTSGVHTFPAVLQSSGLYSLESVVTVPSSSLGTQTYICNVNHKPSNTKVDKKVEPKSCDKTHTCPPCPAPELLGGPSVFLFPPKPKDTLMISRTPEVTCVVVDVSHEDPEVKFNWYVDGVEVHNAKTKPCEEQYGSTYRCVSVLTVLHQDWLNGKEYKCKVSNKALPAPIEKTISKAKGQPREPQVYTLPPSRKKMTKNQVSLTCLVKGFYPSDIAVEWESNGQPENNYKTTPPVLKSDGSFFLYSKLTVDKSRWQQGNVFSCSVMHEALHNHYTQKSLSLSPGK light 2: EIVLTQSPATLSLSPGERATLSCRASKSVGRSLHWYQQKPGQAPRLLIKYASQSLSGIPARFSGSGSGTDFTLTISSLEPEDFAVYYCHQSSRLPFTFGPGTKVDIKRTVAAPSVFIFPPSDEQLKSGTASVVCLLNNFYPREAKVQWKVDNALQSGNSQESVTEQDSKDSTYSLESTLTLSKADYEKHKVYACEVTHQGLSSPVTKSFNRGEC heavy 2: not shown"
1.5,0.39,8.5,0.74,"iPS:454759 (bispecific antibody, human IgG1, kappa, lambda, N297G) light 1: QSVLTQPPSVSAAPGQKVTISCSGSYSNIGRYSVSWYQQLPGTAPKLLIYDNNKRPSGIPDRFSGSKSGTSATLGITGLQTGDEADYYCGTWDSRLSAVVFGGGTKLTVLGQPKAAPSVTLFPPSSEELQANKATLVCLISDFYPGAVTVAWKADSSPVKAGVETTTPSKQSNNKYAAKSYLSLTPEQWKSHRSYSCQVTHEGSTVEKTVAPTECS heavy 1: QVQLVESGGGVVQPGRSLRLSCAASGFTFSSFGMHWVRQAPGKGLEWVAVISFDGSIKYSVDSVKGRFTISRDNSKNTLFLQMNSLRAEDTAVYYCARDRLNYYESSGYYHYKYYGMAVWGQGTTVTVSSASTKGPSVFPLAPSSKSTSGGTAALGCLVKDYFPEPVTVSWNSGALTSGVHTFPAVLQSSGLYSLESVVTVPSSSLGTQTYICNVNHKPSNTKVDKKVEPKSCDKTHTCPPCPAPELLGGPSVFLFPPKPKDTLMISRTPEVTCVVVDVSHEDPEVKFNWYVDGVEVHNAKTKPCEEQYGSTYRCVSVLTVLHQDWLNGKEYKCKVSNKALPAPIEKTISKAKGQPREPQVYTLPPSRKKMTKNQVSLTCLVKGFYPSDIAVEWESNGQPENNYKTTPPVLKSDGSFFLYSKLTVDKSRWQQGNVFSCSVMHEALHNHYTQKSLSLSPGK light 2: EIVLTQSPATLSLSPGERATLSCRASKSVGRSLHWYQQKPGQAPRLLIKYASQSLSGIPARFSGSGSGTDFTLTISSLEPEDFAVYYCHQSSRLPFTFGPGTKVDIKRTVAAPSVFIFPPSDEQLKSGTASVVCLLNNFYPREAKVQWKVDNALQSGNSQESVTEQDSKDSTYSLESTLTLSKADYEKHKVYACEVTHQGLSSPVTKSFNRGEC heavy 2: not shown"
1.4,0.42,6.4,0.97,"iPS:454761 (bispecific antibody, human IgG1, kappa, lambda, N297G) light 1: QSVLTQPPSVSAAPGQKVTISCSGSYSNIGRYSVSWYQQLPGTAPKLLIYDNNKRPSGIPDRFSGSKSGTSATLGITGLQTGDEADYYCGTWDSRLSAVVFGGGTKLTVLGQPKAAPSVTLFPPSSEELQANKATLVCLISDFYPGAVTVAWKADSSPVKAGVETTTPSKQSNNKYAAKSYLSLTPEQWKSHRSYSCQVTHEGSTVEKTVAPTECS heavy 1: QVQLVESGGGVVQPGRSLRLSCAASGFTFSSFGMHWVRQAPGKGLEWVAVISFDGSIKYSVDSVKGRFTISRDNSKNTLFLQMNSLRAEDTAVYYCARDRLNYYESSGYYHYKYYGMAVWGQGTTVTVSSASTKGPSVFPLAPSSKSTSGGTAALGCLVKDYFPEPVTVSWNSGALTSGVHTFPAVLQSSGLYSLESVVTVPSSSLGTQTYICNVNHKPSNTKVDKKVEPKSCDKTHTCPPCPAPELLGGPSVFLFPPKPKDTLMISRTPEVTCVVVDVSHEDPEVKFNWYVDGVEVHNAKTKPCEEQYGSTYRCVSVLTVLHQDWLNGKEYKCKVSNKALPAPIEKTISKAKGQPREPQVYTLPPSRKKMTKNQVSLTCLVKGFYPSDIAVEWESNGQPENNYKTTPPVLKSDGSFFLYSKLTVDKSRWQQGNVFSCSVMHEALHNHYTQKSLSLSPGK light 2: EIVLTQSPATLSLSPGERATLSCRASKSVGRSLHWYQQKPGQAPRLLIKYASQSLSGIPARFSGSGSGTDFTLTISSLEPEDFAVYYCHQSSRLPFTFGPGTKVDIKRTVAAPSVFIFPPSDEQLKSGTASVVCLLNNFYPREAKVQWKVDNALQSGNSQESVTEQDSKDSTYSLESTLTLSKADYEKHKVYACEVTHQGLSSPVTKSFNRGEC heavy 2: not shown"
